These results are taken from publication PMC11626796, “Versican binds collagen via its G3 domain and regulates the organization and mechanics of collagenous matrices” (The Journal of Biological Chemistry, 2024).

The chains are these.
B1: Recombinant human versican isoform V3 (natural protein)
chain: not shown
notes: Versican isoform V3, human; contains only the N-terminal G1 and C-terminal G3 domains and lacks the GAG domains; also called V3 isoform; source: bought: R&D Systems
B2: Recombinant human versican G1 domain (domain or fragment)
chain: not shown
modifications: Limits taken by convention: mature N-terminus through Ig-like V, Link 1 and Link 2 (Abcam ab152303 limits not given); tag omitted
B3: Recombinant human versican G3 domain (domain or fragment)
chain: not shown

T1 sequence (P02454 152-1207, chain 1 of 2): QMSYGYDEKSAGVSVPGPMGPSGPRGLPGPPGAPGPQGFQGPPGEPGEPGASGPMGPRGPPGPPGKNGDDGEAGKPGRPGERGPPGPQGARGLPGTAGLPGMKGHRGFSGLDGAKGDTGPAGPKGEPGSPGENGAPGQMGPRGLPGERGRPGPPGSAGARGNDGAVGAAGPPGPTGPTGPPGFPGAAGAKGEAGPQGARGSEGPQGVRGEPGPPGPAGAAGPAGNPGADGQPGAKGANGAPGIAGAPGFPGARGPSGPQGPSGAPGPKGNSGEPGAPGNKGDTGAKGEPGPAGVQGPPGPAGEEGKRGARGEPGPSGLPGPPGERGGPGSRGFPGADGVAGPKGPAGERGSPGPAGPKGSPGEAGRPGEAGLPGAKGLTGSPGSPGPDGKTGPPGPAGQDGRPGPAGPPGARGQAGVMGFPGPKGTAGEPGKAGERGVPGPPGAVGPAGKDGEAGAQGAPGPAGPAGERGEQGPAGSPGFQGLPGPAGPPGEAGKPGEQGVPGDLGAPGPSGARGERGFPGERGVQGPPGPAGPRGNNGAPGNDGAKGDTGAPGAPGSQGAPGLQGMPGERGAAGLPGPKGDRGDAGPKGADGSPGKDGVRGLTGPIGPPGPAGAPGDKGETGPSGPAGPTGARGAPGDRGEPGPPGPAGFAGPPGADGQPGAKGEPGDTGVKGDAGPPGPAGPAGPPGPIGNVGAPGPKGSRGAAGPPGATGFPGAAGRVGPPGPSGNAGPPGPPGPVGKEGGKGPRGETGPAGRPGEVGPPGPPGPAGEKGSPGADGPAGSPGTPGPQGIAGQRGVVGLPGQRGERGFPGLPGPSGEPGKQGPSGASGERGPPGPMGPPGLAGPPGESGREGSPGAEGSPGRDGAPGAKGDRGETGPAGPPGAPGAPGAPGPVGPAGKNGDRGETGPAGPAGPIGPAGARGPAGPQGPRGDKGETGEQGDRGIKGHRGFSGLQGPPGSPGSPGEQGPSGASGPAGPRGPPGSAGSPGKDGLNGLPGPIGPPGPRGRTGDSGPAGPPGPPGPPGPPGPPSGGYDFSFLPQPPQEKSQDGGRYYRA
T1 sequence (P02466 86-1125, chain 2 of 2): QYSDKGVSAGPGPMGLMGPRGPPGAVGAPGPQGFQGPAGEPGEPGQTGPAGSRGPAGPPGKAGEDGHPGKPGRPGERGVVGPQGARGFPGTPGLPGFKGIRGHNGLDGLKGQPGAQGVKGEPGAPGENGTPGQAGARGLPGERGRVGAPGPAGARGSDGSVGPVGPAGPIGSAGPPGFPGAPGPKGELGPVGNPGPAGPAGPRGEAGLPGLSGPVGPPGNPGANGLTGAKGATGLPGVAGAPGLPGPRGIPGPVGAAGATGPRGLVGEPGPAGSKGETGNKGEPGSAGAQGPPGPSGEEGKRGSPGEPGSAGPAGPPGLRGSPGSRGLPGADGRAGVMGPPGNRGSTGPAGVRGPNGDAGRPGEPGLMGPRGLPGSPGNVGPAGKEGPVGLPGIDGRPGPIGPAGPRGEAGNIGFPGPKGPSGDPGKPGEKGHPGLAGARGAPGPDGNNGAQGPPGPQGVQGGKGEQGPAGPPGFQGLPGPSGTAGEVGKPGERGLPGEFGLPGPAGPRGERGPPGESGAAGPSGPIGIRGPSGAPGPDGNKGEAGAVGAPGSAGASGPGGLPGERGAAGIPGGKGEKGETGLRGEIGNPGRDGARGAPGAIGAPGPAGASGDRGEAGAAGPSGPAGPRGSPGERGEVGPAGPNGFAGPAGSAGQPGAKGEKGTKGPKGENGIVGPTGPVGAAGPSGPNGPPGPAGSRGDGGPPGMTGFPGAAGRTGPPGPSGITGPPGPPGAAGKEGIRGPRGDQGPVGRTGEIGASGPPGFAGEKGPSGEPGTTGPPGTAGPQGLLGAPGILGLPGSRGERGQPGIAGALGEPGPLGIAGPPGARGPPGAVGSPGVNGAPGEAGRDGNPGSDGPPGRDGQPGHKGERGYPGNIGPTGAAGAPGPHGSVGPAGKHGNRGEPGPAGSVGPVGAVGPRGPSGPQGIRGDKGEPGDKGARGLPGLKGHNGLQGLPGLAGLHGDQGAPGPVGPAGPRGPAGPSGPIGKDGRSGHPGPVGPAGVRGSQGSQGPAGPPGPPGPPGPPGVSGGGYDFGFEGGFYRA

This test addresses T1, Rat tail type I telo-collagen (rat, UniProt P02454 152-1207; P02466 86-1125).
T1 construct: Type I collagen alpha-1 chain, rat tail telo-collagen; Type I collagen alpha-2 chain, rat tail telo-collagen; Extracted from tissue; Telopeptides are kept (telo-collagen); also called type I collagen; full-length collagen; source: bought: Corning (rat tail)
As to the kind of experiment: ELISA; solid-phase binding assay: proteoglycan or versican domain coated on a 96-well plate (0.25 ug/ml; 0.05-1 ug/ml in Fig. 2A) at 4 C overnight, blocked with 3% BSA in TTBS or casein; rat tail type I collagen 0.1-5 ug/ml in 1% BSA/PBS overnight at RT; detected with biotin-conjugated anti-collagen I antibody, streptavidin-HRP and TMB; Kd from Scatchard plot. To be noted: both partners purified. In general terms: In an ELISA, binding on a coated surface is turned into a signal by an enzyme label.
The term Kd denotes the constant that tells how readily two partners part at equilibrium. As for B1, the Kd turned out to be 0.7 nM.

B2 yielded a Kd of 0.9 nM.

In the case of B3, the Kd came to 3.2 nM.
